Source: paper doi:10.1101/2025.11.13.688182

Biological target: RAD51 full-length [F86E, A89E], co-expressed with BRC repeats (human) (UniProt Q06609)
Experiment: SEC-SAXS

Chain of UniProt Q06609 (Q06609 whole entry F86E/A89E): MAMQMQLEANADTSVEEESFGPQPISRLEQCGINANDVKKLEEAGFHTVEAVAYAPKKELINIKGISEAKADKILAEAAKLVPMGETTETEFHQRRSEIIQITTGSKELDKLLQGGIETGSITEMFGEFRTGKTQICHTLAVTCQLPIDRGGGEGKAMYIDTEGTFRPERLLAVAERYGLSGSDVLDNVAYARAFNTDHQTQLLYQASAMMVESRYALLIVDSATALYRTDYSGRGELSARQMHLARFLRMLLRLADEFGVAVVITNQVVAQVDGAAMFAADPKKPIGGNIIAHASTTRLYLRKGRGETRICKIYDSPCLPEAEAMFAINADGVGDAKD

| Substance | stoichiometry, BRC repeats to RAD51 (RAD51 per BRC repeat) |
| --- | --- |
| BRCA2 truncation BRC1-2 (from UniProt P51587 1-3418) (domain or fragment) | 1 |
| BRCA2 truncation BRC1-4 (from UniProt P51587 1-3418) (domain or fragment) | 1 |
| BRCA2 truncation BRC3-4 (from UniProt P51587 1-3418) (domain or fragment) | 1 |

More lines, now with the values ahead:

| stoichiometry, BRC repeats to RAD51 (RAD51 per BRC repeat) | Substance |
| --- | --- |
| 1 | BRCA2 truncation BRC2-3 (from UniProt P51587 1-3418) (domain or fragment) |
| 1 | BRCA2 truncation BRC2-4 (from UniProt P51587 1-3418) (domain or fragment) |
